The chains are these.
B1: hAb003LH1L1a (antibody, human IgG1, V domains shown)
VH: EVQLVQSGAEVKKPGSSVKVSCKASGYTFSDYEMHWVRQAPGQGLEWMGTIDPETGNTAYTQKFMDRVTITADKSTSTAYMELSSLRSEDTAVYYCTRGYSFTYWGQGTLVTVSS
VL: DIVMTQTPLSLPVTPGEPASISCRSSQNIVHSDGNTYLQWYLQKPGQSPQLLIFKVSNRFSGVPDRFSGSGSGTDFTLKISRVEAEDVGVYYCFQGSHVPFTFGQGTKLEIK
B2: hAb007LH3L1a (antibody, human IgG1, V domains shown)
VH: B1 VH with S30T, T61N, M65K, D66G, I70L, G99P, F102L
VL: B1 VL with N28S, I29F, N35D, F54Y, F101Y
B3: hAb005LH3L1a (antibody, human IgG1, V domains shown)
VH: EVQLVQSGAEVKKPGASVKVSCKASGYTFTDYEMHWVRQAPGQGLEWIGAIDPETGNTAYIQKFKGRATLTTDKSTSTAYMELRSLRSDDTAVYYCTRFYSYSHWGQGTTVTVSS
VL: B1 VL with N28S, I29L, Q39H, F54Y, F94S, G96N, S97T, F101P, Q105G, L109V
B4: hAb005LH2L1a (antibody, human IgG1, V domains shown)
VH: B3 VH with I48M, A68V
VL: B1 VL with N28S, I29L, Q39H, F54Y, F94S, G96N, S97T, F101P, Q105G, L109V
B5: hAb003LH3L1 (antibody, human IgG1, V domains shown)
VH: B1 VH with T28R, S30T, I70L
VL: B1 VL with D33N
B6: hAb003LH3L1a (antibody, human IgG1, V domains shown)
VH: B1 VH with T28R, S30T, I70L
VL: B1 VL
B7: hAb007LH2L1a (antibody, human IgG1, V domains shown)
VH: B1 VH with S30T, T61N, M65K, D66G, G99P, F102L
VL: B1 VL with N28S, I29F, N35D, F54Y, F101Y
B8: hAb005LH1L1a (antibody, human IgG1, V domains shown)
VH: B3 VH with I48M, A68V, L70M
VL: B1 VL with N28S, I29L, Q39H, F54Y, F94S, G96N, S97T, F101P, Q105G, L109V
B9: hAb003LH3L1b (antibody, human IgG1, V domains shown)
VH: B1 VH with T28R, S30T, I70L
VL: B1 VL with D33N, G34R
B10: hAb007LH1L1b (antibody, human IgG1, V domains shown)
VH: B1 VH with T61N, M65K, D66G, G99P, F102L
VL: B1 VL with N28S, I29F, D33N, G34R, N35D, F54Y, F101Y
B11: hAb003LH2L1a (antibody, human IgG1, V domains shown)
VH: B1 VH with T28R, S30T
VL: B1 VL
B12: hAb003LH2L1 (antibody, human IgG1, V domains shown)
VH: B1 VH with T28R, S30T
VL: B1 VL with D33N
B13: hAb005LH1L1 (antibody, human IgG1, V domains shown)
VH: B3 VH with I48M, A68V, L70M
VL: DIVMTQTPLSLPVTPGEPASISCRSSQSLVHSNGNTYLHWYLQKPGQSPQLLIYKVSNRFSGVPDRFSGSGSGTDFTLKISRVEAEDVGVYYCSQNTHVPPTFGGGTKVEIK
B14: hAb005LH3L1 (antibody, human IgG1, V domains shown)
VH: B3 VH
VL: B13 VL
B15: hAb005LH2L1 (antibody, human IgG1, V domains shown)
VH: B3 VH with I48M, A68V
VL: B13 VL
B16: hAb005LH3L1b (antibody, human IgG1, V domains shown)
VH: B3 VH
VL: B13 VL with G34R

Residue numbers refer to the chain shown, from its start.

The target of the first assay is monkey GPC3-His protein (monkey). Kind of assay: ELISA, monkey GPC3-His coated; antibody 0.0008 nM. (In an ELISA, binding on a coated surface is turned into a signal by an enzyme label.)
B1 displayed an OD450 nm of 0.087.
As for B2, the OD450 nm is 0.069.
Same read-out and setting: the figure for B3 is 0.04; for B4 it is 0.099; for B5 it is 0.16.
For B6, the OD450 nm turned out to be 0.089.
On the same count and under the same terms, the figure for B7 is 0.065.
Same read-out and setting: the same measure for B8: 0.06.
B9 came in with an OD450 nm of 0.165.
B10 registered an OD450 nm of 0.071.
Consider B11, for which the OD450 nm worked out at 0.15.
On the same count and under the same terms, the figure for B12 is 0.175; for B13 it is 0.069.
Still for that read-out and setting: the same measure for B14: 0.088.
On the same count and under the same terms, the figure for B15 is 0.164; for B16 it is 0.088.

The next assay shares this target. Kind of assay: ELISA, monkey GPC3-His coated; antibody 0.11 nM.
In the case of B1, the OD450 nm turned out to be 1.48.
The same measure, in the same setting: the same measure for B2: 0.337; for B3: 0.038.
The same measure, in the same setting: the figure for B4 is 0.042.
Same read-out and setting: the figure for B5 is 1.85; for B6 it is 1.59; for B7 it is 0.468.
Turning to B8, the OD450 nm is 0.066.
In turn, B9 came in with an OD450 nm of 2.1.
On the same count and under the same terms, the same measure for B10: 0.958; for B11: 1.37.
Same read-out and setting: the same measure for B12: 2.16; for B13: 0.94; for B14: 0.997.
Same read-out and setting: the same measure for B15: 1.13; for B16: 1.11.

The next assay shares this target. In words: ELISA, monkey GPC3-His coated; antibody 66.66 nM.
The molecule B1 displayed an OD450 nm of 2.42.
The molecule B2 displayed an OD450 nm of 2.34.
In the case of B3, the OD450 nm was determined as 0.527.
As to B4, the OD450 nm turned out to be 0.652.
On the same count and under the same terms, the figure for B5 is 2.53.
Molecule B6 displayed an OD450 nm of 2.39.
For the molecule B7, the OD450 nm turned out to be 2.45.
Molecule B8 displayed an OD450 nm of 0.578.
The same measure, in the same setting: the same measure for B9: 2.53; for B10: 2.54.
The same measure, in the same setting: the same measure for B11: 2.23; for B12: 2.51.
Molecule B13 displayed an OD450 nm of 1.1.
On the same count and under the same terms, the same measure for B14: 1.24; for B15: 1.2.
Molecule B16 had an OD450 nm of 1.18.

For another assay the target is unchanged. Kind of assay: ELISA, monkey GPC3-His coated; antibody 0.004 nM.
In the case of B1, the OD450 nm was found to be 0.148.
On the same count and under the same terms, the figure for B2 is 0.079; for B3 it is 0.041.
On the same count and under the same terms, the same measure for B4: 0.04; for B5: 0.357.
Molecule B6 showed an OD450 nm of 0.202.
With B7, the OD450 nm was 0.093.
Still for that read-out and setting: the figure for B8 is 0.045; for B9 it is 0.432; for B10 it is 0.128.
With B11, the OD450 nm was 0.16.
For the molecule B12, the OD450 nm was 0.413.
Still for that read-out and setting: the same measure for B13: 0.103; for B14: 0.226; for B15: 0.222.
Same read-out and setting: the figure for B16 is 0.237.

For another assay the target is unchanged. Kind of assay: ELISA, monkey GPC3-His coated; antibody 2.67 nM.
Molecule B1 came in with an OD450 nm of 2.29.
In the case of B2, the OD450 nm was 1.89.
The molecule B3 displayed an OD450 nm of 0.098.
On the same count and under the same terms, the same measure for B4: 0.136; for B5: 2.36.
B6 registered an OD450 nm of 2.38.
B7 showed an OD450 nm of 2.1.
B8 displayed an OD450 nm of 0.111.
Same read-out and setting: the figure for B9 is 2.4; for B10 it is 2.39.
In turn, B11 showed an OD450 nm of 2.17.
B12 registered an OD450 nm of 2.57.
Still for that read-out and setting: the same measure for B13: 1.21; for B14: 1.27.
Molecule B15 gave an OD450 nm of 1.24.
On the same count and under the same terms, the figure for B16 is 1.33.

For another assay the target is unchanged. Kind of assay: ELISA, monkey GPC3-His coated; antibody 0.02 nM.
In turn, B1 came in with an OD450 nm of 0.483.
The same measure, in the same setting: the same measure for B2: 0.135.
On to B3, for which the OD450 nm is 0.039.
Still for that read-out and setting: the same measure for B4: 0.041.
The same measure, in the same setting: the figure for B5 is 0.963; for B6 it is 0.633.
As for B7, the OD450 nm worked out at 0.182.
Still for that read-out and setting: the same measure for B8: 0.039.
Still for that read-out and setting: the same measure for B9: 1.17; for B10: 0.305; for B11: 0.475.
Same read-out and setting: the same measure for B12: 1.22; for B13: 0.594.
Molecule B14 displayed an OD450 nm of 0.609.
Turning to B15, the OD450 nm stood at 0.649.
On the same count and under the same terms, the same measure for B16: 0.663.

The next assay shares this target. Kind of assay: ELISA, monkey GPC3-His coated; antibody 13.33 nM.
In the case of B1, the OD450 nm is 2.35.
With B2, the OD450 nm came to 2.37.
Regarding B3, the OD450 nm amounted to 0.161.
Turning to B4, the OD450 nm was found to be 0.276.
As to B5, the OD450 nm is 2.36.
On the same count and under the same terms, the same measure for B6: 2.3; for B7: 2.39; for B8: 0.195.
B9 showed an OD450 nm of 2.4.
Still for that read-out and setting: the same measure for B10: 2.37.
Still for that read-out and setting: the same measure for B11: 2.34; for B12: 2.44; for B13: 1.22.
For B14, the OD450 nm was 1.13.
As for B15, the OD450 nm was 1.15.
The same measure, in the same setting: the same measure for B16: 1.27.

Another assay has the same target. Kind of assay: ELISA, monkey GPC3-His coated; antibody 0.53 nM.
In turn, B1 displayed an OD450 nm of 2.2.
The same measure, in the same setting: the figure for B2 is 1.08; for B3 it is 0.042.
On the same count and under the same terms, the figure for B4 is 0.056; for B5 it is 2.22; for B6 it is 2.21.
B7 yielded an OD450 nm of 1.41.
On the same count and under the same terms, the figure for B8 is 0.053.
On the same count and under the same terms, the figure for B9 is 2.5.
Take B10: the OD450 nm was 1.97.
B11 had an OD450 nm of 2.12.
In the case of B12, the OD450 nm amounted to 2.58.
Still for that read-out and setting: the same measure for B13: 1.16; for B14: 1.15.
The same measure, in the same setting: the same measure for B15: 1.28; for B16: 1.27.

The target of a further assay is monkey GPC3 on HEK293T-monkey GPC3 cells (monkey). Kind of assay: FACS on HEK293T-monkey GPC3 cells.
Broadly, the EC50 is the midpoint of the concentration-response curve. As for B1, the EC50 amounted to 4.77 nM and the Max MFI was 22600 MFI.
For B3, in that order: 112 nM and 2920 MFI.
The corresponding values for B4 are 32.8 nM and 3490 MFI.
Regarding B5, the EC50 amounted to 1.58 nM and the Max MFI amounted to 30900 MFI.
The corresponding values for B6 are 3.27 nM and 24500 MFI.
For B8, in that order: 71.6 nM and 2910 MFI.
B9: the EC50 turned out to be 1.28 nM and the Max MFI amounted to 31300 MFI.
As for B11, the 50% effective concentration (EC50) is 3.09 nM and the Max MFI turned out to be 23200 MFI.
For the molecule B12, the EC50 came out at 1.32 nM and the Max MFI was 29600 MFI.
On to B13, for which the EC50 was 2.17 nM and the Max MFI amounted to 23400 MFI.
The molecule B14 came in with a concentration giving a half-maximal response (EC50) of 3.09 nM and a Max MFI of 22200 MFI.
Consider B15, for which the EC50 came out at 2.88 nM and the Max MFI stood at 23400 MFI.
The corresponding values for B16 are 2.37 nM and 22100 MFI.

Values taken from US20260116991A1.
